What follows are binders tested against Sushi domains (SD1/2) protein of the GABAB1a (GB1a) subunit, recombinant (assay: FP competition).
Sushi domains (SD1/2) protein of the GABAB1a (GB1a) subunit, recombinant, sequence (Q9Z0U4 29-158): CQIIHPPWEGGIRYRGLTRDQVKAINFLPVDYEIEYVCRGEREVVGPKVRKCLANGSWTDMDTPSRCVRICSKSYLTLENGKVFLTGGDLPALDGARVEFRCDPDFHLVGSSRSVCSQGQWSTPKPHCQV

Ki [nM] | Binder
301 | Ac-EEDDSDVWWGGADTDY-NH2
762 | Ac-SQYPWAIVWGPTVSREDG-NH2
3080 | Ac-EDDSAVWWGGADTD-NH2
650 | Ac-PWAIVWGPTVSRE-NH2
1740 | Ac-VWGPTVSREDG-NH2
463 | Ac-PWAIVWGPTVS-NH2
15700 | Ac-IVWGPTVSREDG-NH2
433 | Ac-PWAIVWGPTVSR-NH2
248 | Ac-TETEFIAWGPTG-NH2
36 | Ac-TETEFIAWGPTGDEDA-NH2
5550 | Ac-AIVWGPTVSREDG-NH2
12800 | Ac-EEDDSDVWWG-NH2
351 | Ac-EEDDSDVWWGGADTDYADGGE-NH2
1240 | Ac-EADSDVWWGGADTD-NH2
341 | Ac-EEDDSDVWWGGADTD-NH2
1020 | Ac-EEDDSDVWWGGA-NH2
574 | Ac-TETEFIAWGP-NH2
8790 | Ac-EDDSDVAWGGADTD-NH2
597 | Ac-PWAIVWGPTVSREDGGDP-NH2
102 | Ac-TEFIAWGPTGDED-NH2
47 | Ac-TETEFIAWGPTGDEDAL-NH2
433 | Ac-YPWAIVWGPTVSREDG-NH2
1500 | Ac-DSDVWWGGADTDYAD-NH2

Ki [nM] | Binder
97 | Ac-TETEFIAWGPTGD-NH2
716 | Ac-PWAIVWGPT-NH2
561 | Ac-PWAIVWGPTVSREDGG-NH2
653 | Ac-EDDSDVWWGGAATD-NH2
500 | Ac-ADAEEDDSDVWWGGADTDYAD-NH2
29900 | Ac-SSQYPWAIVWGPTVSREDG-NH2
30 | Ac-PTTETEFIAWGPTGDED-NH2
731 | Ac-EDDSDVWWGAADTD-NH2
706 | Ac-PWAIVWGPTVSREDGGDPNS-NH2
281 | Ac-EDDSDVWWGGADTDYAD-NH2
485 | Ac-EDDSDVWWAGADTD-NH2
32 | Ac-TTETEFIAWGPTGDED-NH2
392 | Ac-EEDDSDVWWGGADTDYADGGEDK-NH2
247 | Ac-DAEEDDSDVWWGGADTDYAD-NH2
1830 | Ac-EDASDVWWGGADTD-NH2
513 | Ac-DSADAEEDDSDVWWGGADTDYAD-NH2
2470 | Ac-TETEFIAWG-NH2
112 | Ac-EFIAWGPTGDED-NH2
6100 | Ac-DVWWGGADTDYAD-NH2
236 | Ac-TETEFIAWGPT-NH2
2950 | Ac-SDVWWGGADTDYAD-NH2
585 | Ac-EEDDSDVWWGGADT-NH2
1750 | Ac-EEDDSDVWWGG-NH2

Ki [nM] | Binder
517 | Ac-DDSDVWWGGADTDYAD-NH2
650 | Ac-QYPWAIVWGPTVSREDG-NH2
299 | Ac-EEDDSDVWWGGADTDYA-NH2
706 | Ac-PWAIVW-NH2
534 | Ac-EEDDSDVWWGGAD-NH2
118 | Ac-FIAWGPTGDED-NH2
60800 | Ac-VWWGGADTDYAD-NH2
803 | Ac-ADDSDVWWGGADTD-NH2
579 | Ac-PWAIVWG-NH2
38000 | Ac-IAWGPTGDED-NH2
1790 | Ac-EEDDSDVWW-NH2
343 | Ac-EEDDSDVWWGGADTDYADG-NH2
716 | Ac-PWAIVWGPTVSREDGGD-NH2
561 | Ac-PWAIVWGPTV-NH2
284 | Ac-SADAEEDDSDVWWGGADTDYAD-NH2
597 | Ac-PWAIVWGP-NH2
356 | Ac-EEDDSDVWWGGADTDYADGGED-NH2
1010 | Ac-TETEFIAW-NH2
579 | Ac-PWAIVWGPTVSREDGGDPN-NH2
341 | Ac-EEDDSDVWWGGADTDYADGG-NH2
660 | Ac-EDDADVWWGGADTD-NH2
69 | Ac-TETEFIAWGPTGDE-NH2

Reference: patent US20260193293A1, “PEPTIDES CAPABLE OF INHIBITING PROTEIN-PROTEIN INTERACTIONS AT GABAB1A SUBUNIT AND USES THEREOF” (UNIVERSITY OF COPENHAGEN, priority 2022, published 2026)
